B1: SPSB1 (parent)
chain: DMRDPTYRPLKQELQGLDYCKPTR

Variants of: B1
Test: protein stability index of a GFP-peptide fusion (GPS, HEK-293T) (PSI 1-6); higher = more stable
Settings: c terminus: a fixed tail appended
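Also: lentivirally expressed fusions sorted by FACS into six bins by GFP to DsRed ratio, PSI derived from sequencing read proportions per bin multiplied by bin number.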

Variant | protein stability index
DMRCPTYRPLKQELQGLDYCKPTR [D4C] | 2.96
DMRHPTYRPLKQELQGLDYCKPTR [D4H] | 2.7
DMRGPTYRPLKQELQGLDYCKPTR [D4G] | 2.97
DMRRPTYRPLKQELQGLDYCKPTR [D4R] | 3.53
DMRFPTYRPLKQELQGLDYCKPTR [D4F] | 3.47
DMRMPTYRPLKQELQGLDYCKPTR [D4M] | 2.73
DMRDPTYRPLKQALQGLDYCKPTR [E13A] | 3.09
DMRDPTYRPLKQGLQGLDYCKPTR [E13G] | 3.59
DMRDPTYRPLKQNLQGLDYCKPTR [E13N] | 3.03
DMRDPTYRPLKQHLQGLDYCKPTR [E13H] | 3.07
DMRDPTYRPLKQSLQGLDYCKPTR [E13S] | 3.4
DMRDPTYRPLKQQLQGLDYCKPTR [E13Q] | 2.98
DMRDPTYRPLKQMLQGLDYCKPTR [E13M] | 2.48
DMRDPTYRPLKQWLQGLDYCKPTR [E13W] | 2.44
DMRDPTYRPLKQVLQGLDYCKPTR [E13V] | 3.1
DMRDPTYRPLKQFLQGLDYCKPTR [E13F] | 2.58
DMRDPTYRPLKQTLQGLDYCKPTR [E13T] | 3.18
DFRDPTYRPLKQELQGLDYCKPTR [M2F] | 3.42
DDRDPTYRPLKQELQGLDYCKPTR [M2D] | 3.86
DHRDPTYRPLKQELQGLDYCKPTR [M2H] | 3.64
DSRDPTYRPLKQELQGLDYCKPTR [M2S] | 3.77
DCRDPTYRPLKQELQGLDYCKPTR [M2C] | 3.01
DGRDPTYRPLKQELQGLDYCKPTR [M2G] | 3.78
DMRDPTNRPLKQELQGLDYCKPTR [Y7N] | 3.34

Variant | protein stability index
DMRDPTKRPLKQELQGLDYCKPTR [Y7K] | 3.31
DMRDPTQRPLKQELQGLDYCKPTR [Y7Q] | 4.24
DMRDPTTRPLKQELQGLDYCKPTR [Y7T] | 3.68
DMRDPTCRPLKQELQGLDYCKPTR [Y7C] | 3.14
DMRDPTHRPLKQELQGLDYCKPTR [Y7H] | 2.79
DMRDPTERPLKQELQGLDYCKPTR [Y7E] | 3.86
DMRDPTWRPLKQELQGLDYCKPTR [Y7W] | 3.1
DMRDPTRRPLKQELQGLDYCKPTR [Y7R] | 2.51
DMRDPTFRPLKQELQGLDYCKPTR [Y7F] | 2.98
DMRDPTLRPLKQELQGLDYCKPTR [Y7L] | 3.25
DMRDPTYRELKQELQGLDYCKPTR [P9E] | 3.67
DMRDPTYRYLKQELQGLDYCKPTR [P9Y] | 2.67
DMRDPTYRNLKQELQGLDYCKPTR [P9N] | 3.35
DMRDPTYRCLKQELQGLDYCKPTR [P9C] | 2.52
DMRDPTYRKLKQELQGLDYCKPTR [P9K] | 2.94
DMRDPTYRMLKQELQGLDYCKPTR [P9M] | 2.6
DMRDPTYRTLKQELQGLDYCKPTR [P9T] | 2.64
DMRDPTYRLLKQELQGLDYCKPTR [P9L] | 2.58
DMRDPTYRVLKQELQGLDYCKPTR [P9V] | 3.19
DMRDPLYRPLKQELQGLDYCKPTR [T6L] | 2.71
DMRDPFYRPLKQELQGLDYCKPTR [T6F] | 3.24
DMRDPCYRPLKQELQGLDYCKPTR [T6C] | 2.91
DMRDPMYRPLKQELQGLDYCKPTR [T6M] | 2.92
DMRDPEYRPLKQELQGLDYCKPTR [T6E] | 3.51

Variant | protein stability index
DMRDPDYRPLKQELQGLDYCKPTR [T6D] | 2.72
DMRDPTYRPLKQELWGLDYCKPTR [Q15W] | 2.53
DMRDPTYRPLKQELDGLDYCKPTR [Q15D] | 2.6
DMRDPTYRPLKQELCGLDYCKPTR [Q15C] | 2.57
DMRDPTYRPLKQELLGLDYCKPTR [Q15L] | 2.81
DMRDPTYRPLKQELTGLDYCKPTR [Q15T] | 3.55
DMRDPTYRPLKQELIGLDYCKPTR [Q15I] | 3.05
DMRDPTYRPLKQELPGLDYCKPTR [Q15P] | 2.67
DMRDPTYRPLKQELRGLDYCKPTR [Q15R] | 3.54
DMRDPTYRPLKQELVGLDYCKPTR [Q15V] | 2.73
DMRDPTYRPLKQELQGLDYCKPTK [R24K] | 3.09
DMRDPTYRPLKQELQGLDYCKPTS [R24S] | 3.68
DMRDPTYRPLKQELQGLDYCKPTN [R24N] | 4.03
DMRDPTYRPLKQELQGLDYCKPTW [R24W] | 1.93
DMRDPTYRPLKQELQGLDYCKPTT [R24T] | 3.27
DMRDPTYRPLKQELQGLDYCKPTE [R24E] | 4.56
DMRDPTYRPLKQELQGLDYCKPTM [R24M] | 1.64
DMRDPTYRPLKQELQGLDYCKPTG [R24G] | 3.85
DMRDPTYRPLKQELQGLDYCKPTH [R24H] | 2.98
DMRDPTYRPLKQELQGLDPCKPTR [Y19P] | 4.56
DMRDPTYRPLKQELQGLDNCKPTR [Y19N] | 4.92
DMRDPTYRPLKQELQGLDVCKPTR [Y19V] | 4.5
DMRDPTYRPLKQELQGLDACKPTR [Y19A] | 4.53
DMRDPTYRPLKQELQGLDECKPTR [Y19E] | 5.15

Variant | protein stability index
DMRDPTYRPLKQELQGLDICKPTR [Y19I] | 3.78
DMRDPTYRPLKQELQGLDKCKPTR [Y19K] | 3.99
DMRDPTYRPLKQELQGLDHCKPTR [Y19H] | 4.18
DMFDPTYRPLKQELQGLDYCKPTR [R3F] | 2.92
DMIDPTYRPLKQELQGLDYCKPTR [R3I] | 2.96
DMADPTYRPLKQELQGLDYCKPTR [R3A] | 3.16
DMSDPTYRPLKQELQGLDYCKPTR [R3S] | 3.89
DMKDPTYRPLKQELQGLDYCKPTR [R3K] | 3.2
DMRDPTYRPLKQELQGLDYCKKTR [P22K] | 4.35
DMRDPTYRPLKQELQGLDYCKNTR [P22N] | 3.92
DMRDPTYRPLKQELQGLDYCKMTR [P22M] | 3.07
DMRDPTYRPLKQELQGLDYCKITR [P22I] | 2.29
DMRDPTYRPLKQELQGLDYCKSTR [P22S] | 3.68
DMRDPTYRPLKQELQGLDYCKWTR [P22W] | 2.84
DMRDPTYRPLKQELQGLDYCKLTR [P22L] | 3.18
DMRDPTYRPLKQELQGLDYCKTTR [P22T] | 3.07
DMRDPTYRPLKQELQGLDYCKFTR [P22F] | 2.85
DMRDPTYRPLKQELQGLKYCKPTR [D18K] | 3.53
DMRDPTYRPLKQELQGLAYCKPTR [D18A] | 3.81
DMRDPTYRPLKQELQGLTYCKPTR [D18T] | 3.66
DMRDPTYRPLKQELQGLIYCKPTR [D18I] | 2.89
DMRDPTYRPLKQELQGLPYCKPTR [D18P] | 3.63
